Drawing on the supplement of paper PMC12042874, this text covers amyloid nucleation score for 69 substances.

± gives the uncertainty stated by the source.

The nature of data set [1]: amyloid nucleation score (Sup35N fusion, yeast selection) (log enrichment); library NNK1; higher = more nucleation; inactive = no reads after selection. In a few lines: (§1)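 Peptides of 20 random codons, each fused to Sup35N, were expressed in psi-negative yeast. Cells were induced with 100 μM copper sulfate for 24 hours and grown 7 days at 30°C on medium lacking adenine and uracil, and plasmid inserts before and after selection were Illumina-sequenced. Nucleation scores are DiMSum log enrichments of output over input reads, centred on the mode score of non-aggregating sequences, and sequences under 100 input reads were excluded.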

Data set [2] in a line: amyloid nucleation score (Sup35N fusion, yeast selection) (log enrichment); library NNK2; higher = more nucleation; inactive = no reads after selection. In short, it runs like this: as §1

With ELIFFDDHFTDWYLCFNNFG, the amyloid nucleation score in data set [1] is -1.29 ± 1.4.
Still for that read-out and setting: the figure for MTEQAQ is 0.286 ± 1.4; for SLSCTTLCLEYYRYCVRTYG it is 0.196 ± 0.7.
Still for that read-out and setting: with RTLSWFRRKIIVLYLYYTHS the figure was -0.272 ± 0.88; with KWYGILNVVDDRRSIGRYDM, -0.281 ± 0.58.
As to VELGRLIPPEHETQDLRSGW, in data set [1], the amyloid nucleation score is 0.258 ± 0.46.
The same measure, in the same setting: with TPANNVRISFIWFL the figure was 3.54 ± 0.064.
The same measure, in the same setting: the figure for AYFMGHCLKGPRVTLVGCKT is 0.525 ± 0.65.
In data set [2], NLRHKDGTGLLRSWMSIQRR registered an amyloid nucleation score of 0.436 ± 0.62.
TMYVREYSFYFLYNVDITRG showed an amyloid nucleation score in data set [2] of 0.649 ± 0.32.
On the same count and under the same terms, the figure for HSLVS is -0.266 ± 1; for NTVRRVCFAVVEMSASIMDG it is 0.738 ± 0.42; for YMSYNYGTVLEFLELPDSHR it is 1.56 ± 0.11.
Still for that read-out and setting: with SMQKG the entry was “inactive”; with PGHWLTNINISFSACKCLMM, 8.227 ± 0.045.
Still for that read-out and setting: the figure for YVLFLVRWRVNRV is 2.19 ± 0.11.
Consider QVWSFDGCS, for which the amyloid nucleation score in data set [2] was -0.15 ± 0.4.
In turn, SCKKCMSYVVVVNIVRHICM gave an amyloid nucleation score in data set [2] of 1.86 ± 0.11.
Take CEFMCLQGSRDRIDFLHRSE: the amyloid nucleation score in data set [2] was -1 ± 0.34.
On the same count and under the same terms, with SYDGERVI the figure was 0.444 ± 0.28; with RMFRFRRHSKHLEKLSSRFL, -0.222 ± 0.49.
Still for that read-out and setting: with DGTYLQNRRDFNNGSARRGW the figure was 0.984 ± 0.57.
On the same count and under the same terms, with NTIEGPRYYGTFAISNGVTQ the figure was 0.824 ± 0.48; with CKIEGWCTGCGSRQLRARAE, 1.09 ± 0.34; with TFNVPKMESVRPPG, 0.796 ± 0.52.
Regarding STFIMCDRTDPASIAIA, in data set [2], the amyloid nucleation score was found to be 0.6 ± 0.64.
For FLLSV, the amyloid nucleation score result in data set [2] is “inactive”.
Same read-out and setting: the entry for YVYERIDSERRTRPCKKKMY is “inactive”; for RRFLNGFFRVQRLRYRHPFI it is -0.005 ± 0.63; for CSPYVRSCTGYVEWGSIRTM it is 0.06 ± 0.29.
In turn, PNACPFWCLGRV displayed an amyloid nucleation score in data set [2] of -0.439 ± 0.63.
Same read-out and setting: with INIIMFNVFINLEHIYYSVG the figure was 5.79 ± 0.066.
Same read-out and setting: the figure for NVTGYFSSYKVVGRMESSYV is 1.73 ± 0.19; for LVFFSLDFYYRGWHRDWIAG it is -1.26 ± 0.64; for IRYLYAMVLMDVNDGRYYCK it is -1.54 ± 1.
Same read-out and setting: the figure for WASFTSACRRLLSPCTPRSG is 5.22 ± 0.1; for TCFMRCRTCNLRVIHSDVF it is 5.546 ± 0.048.
Substance SSCLIG had an amyloid nucleation score in data set [2] of 0.28 ± 0.43.
Same read-out and setting: the figure for CFLTTYNRNYNLMRVFSIFR is 1.43 ± 0.21.
Same read-out and setting: with QDMQLVIYWSYKLYQVFLRA the figure was -0.357 ± 1.1.
Same read-out and setting: with RTLWATNVRLKNLHVFIMVM the figure was 0.147 ± 0.8; with IERPVRVHRYKT, “inactive”; with VFAYIHFVTLGGCLLGF, 1.3 ± 0.47.
RLLFVWV came in with an amyloid nucleation score in data set [2] of 4.12 ± 0.087.
Same read-out and setting: the figure for SYFKSTSARCFSFYLCCAKT is 6.224 ± 0.05; for IFFVSDVESNIGRWLRRCFP it is 5.465 ± 0.054.
Same read-out and setting: the figure for RNHRRSWMPSFRTKLNGGWF is 3.58 ± 0.14; for RMRFYWWDVSMLYTCSYSDF it is 1.04 ± 0.11; for VAFNCNIEIISPAGDGETFV it is -0.489 ± 0.27.
On the same count and under the same terms, with NCASWLYGSCACVGLLDLFE the figure was -0.626 ± 0.41.
In the case of LVSMAIECHLLYLLE, the amyloid nucleation score in data set [2] came to 0.931 ± 0.47.
Same read-out and setting: with HSFPRCNSVHWPDDIGGCDG the figure was 4.58 ± 0.047; with MDTVMRLYVCVCCRSFLRIG, 1.62 ± 0.35.
On the same count and under the same terms, the figure for YYVWVI is -0.698 ± 0.78.
For ISQRNRSIAYYKMSLTRYGF, the amyloid nucleation score result in data set [2] is “inactive”.
Consider SRGWTRMRSYVVSSDFILLK, for which the amyloid nucleation score in data set [2] stood at 0.178 ± 0.48.
RSTQLNSGPTANK came in with an amyloid nucleation score in data set [2] of 1.21 ± 0.41.
The same measure, in the same setting: the figure for QQHYLEEPDDESLVRGCRHW is -0.039 ± 0.54; for ISGYRWNHVSTFVGIYRVHS it is 0.98 ± 0.53; for CVSVGCVESGTMICQLKLSQ it is 7.19 ± 0.075.
On the same count and under the same terms, the figure for VINLDKLIFVLEDNCIVFWE is 6.374 ± 0.023; for WDPQCGSLPFFLLNAEAFET it is “inactive”.
The same measure, in the same setting: the figure for KFAKSSNKDHHDFYAVELGT is -0.289 ± 0.63; for VGLFGWRGKEGF it is -0.033 ± 0.76.
In data set [2], GTGIHLLLLVGSGDSSREMM had an amyloid nucleation score of -1.08 ± 0.36.
Still for that read-out and setting: with CCAGWYSGEEGRMGSRL the figure was 0.511 ± 0.18; with HLYLEYGNVTWGWVMVLIVG, “inactive”; with GEYGCHHVCLVQGLFGI, -0.164 ± 0.42.
In data set [2], LNYMLSAPYFPYESEWSSKG came in with an amyloid nucleation score of -0.59 ± 1.1.
